Measured values taken from patent publication US20260043020A1, “BINDING MEMBERS WITH ALTERED DIVERSITY SCAFFOLD DOMAINS” (priority 2016, published 2026).

Target: rat TFR (rat) (UniProt Q99376)
Assay: cell-based or functional assay

OX26-Fab showed a % transcytosis after 6 h (in vitro rat BBB model) of 0.2%.
